Measured values published in publication PMC10527876.

Target: human CYP2D6 (human) (UniProt P10635)
Chain of UniProt P10635 (P10635 whole entry): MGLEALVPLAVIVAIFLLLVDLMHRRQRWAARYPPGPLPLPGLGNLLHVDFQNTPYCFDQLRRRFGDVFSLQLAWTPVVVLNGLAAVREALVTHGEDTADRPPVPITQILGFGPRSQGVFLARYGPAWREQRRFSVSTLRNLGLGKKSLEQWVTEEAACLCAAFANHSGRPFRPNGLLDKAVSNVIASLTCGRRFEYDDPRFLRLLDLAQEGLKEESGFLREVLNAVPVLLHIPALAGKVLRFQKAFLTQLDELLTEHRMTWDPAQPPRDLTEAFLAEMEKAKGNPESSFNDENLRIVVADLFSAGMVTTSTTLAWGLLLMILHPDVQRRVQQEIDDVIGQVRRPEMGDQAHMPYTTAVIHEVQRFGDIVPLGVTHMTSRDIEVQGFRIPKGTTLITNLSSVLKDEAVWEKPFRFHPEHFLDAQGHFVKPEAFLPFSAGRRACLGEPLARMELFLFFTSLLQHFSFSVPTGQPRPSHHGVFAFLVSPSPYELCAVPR

B1: human UGT1A7 (enzyme)
chain: GKLLVVPMDGSHWFTMQSVVEKLILRGHEVVVVMPEVSWQLGRSLNCTVKTYSTSYTLEDQDREFMVFADARWTAPLRSAFSLLTSSSNGIFDLFFSNCRSLFNDRKLVEYLKESCFDAVFLDPFDACGLIVAKYFSLPSVVFARGIFCHYLEEGAQCPAPLSYVPRLLLGFSDAMTFKERVWNHIMHLEEHLFCPYFFKNVLEIASEILQTPVTAYDLYSHTSIWLLRTDFVLEYPKPVMPNMIFIGGINCHQGKPVPMEFEAYINASGEHGIVVFSLGSMVSEIPEKKAMAIADALGKIPQTVLWRYTGTRPSNLANNTILVKWLPQNDLLGHPMTRAFITHAGSHGVYESICNGVPMVMMPLFGDQMDNAKRMETKGAGVTLNVLEMTSEDLENALKAVINDKSYKENIMRLSSLHKDRPVEPLDLAVFWVEFVMRHKGAPHLRPAAHDLTWYQYHSLDVIGFLLAVVLTVAFITFKCCAYGYRKCLGKKGRVKKAHKSKTH
production of 4-hydroxypropranolol from propranolol by CYP2D6 in co-expressing enzyme bags (SAN306), against the CYP2D6 control strain SAN300: 3.3 fold
production of 5-hydroxypropranolol from propranolol by CYP2D6 in co-expressing enzyme bags (SAN306), against the CYP2D6 control strain SAN300: 8.4 fold

B2: human UGT1A8 (enzyme)
chain: GKLLVVPMDGSHWFTMQSVVEKLILRGHEVVVVMPEVSWQLGKSLNCTVKTYSTSYTLEDLDREFMDFADAQWKAQVRSLFSLFLSSSNGFFNLFFSHCRSLFNDRKLVEYLKESSFDAVFLDPFDACGLIVAKYFSLPSVVFARGIACHYLEEGAQCPAPLSYVPRILLGFSDAMTFKERVRNHIMHLEEHLFCQYFSKNALEIASEILQTPVTAYDLYSHTSIWLLRTDFVLDYPKPVMPNMIFIGGINCHQGKPLPMEFEAYINASGEHGIVVFSLGSMVSEIPEKKAMAIADALGKIPQTVLWRYTGTRPSNLANNTILVKWLPQNDLLGHPMTRAFITHAGSHGVYESICNGVPMVMMPLFGDQMDNAKRMETKGAGVTLNVLEMTSEDLENALKAVINDKSYKENIMRLSSLHKDRPVEPLDLAVFWVEFVMRHKGAPHLRPAAHDLTWYQYHSLDVIGFLLAVVLTVAFITFKCCAYGYRKCLGKKGRVKKAHKSKTH
production of 4-hydroxypropranolol from propranolol by CYP2D6 in co-expressing enzyme bags (SAN307), against the CYP2D6 control strain SAN300: 2.1 fold
production of 5-hydroxypropranolol from propranolol by CYP2D6 in co-expressing enzyme bags (SAN307), against the CYP2D6 control strain SAN300: 4.8 fold

B3: human UGT1A9 (enzyme)
chain: GKLLVVPMDGSHWFTMRSVVEKLILRGHEVVVVMPEVSWQLGRSLNCTVKTYSTSYTLEDLDREFKAFAHAQWKAQVRSIYSLLMGSYNDIFDLFFSNCRSLFKDKKLVEYLKESSFDAVFLDPFDNCGLIVAKYFSLPSVVFARGILCHYLEEGAQCPAPLSYVPRILLGFSDAMTFKERVRNHIMHLEEHLLCHRFFKNALEIASEILQTPVTEYDLYSHTSIWLLRTDFVLDYPKPVMPNMIFIGGINCHQGKPLPMEFEAYINASGEHGIVVFSLGSMVSEIPEKKAMAIADALGKIPQTVLWRYTGTRPSNLANNTILVKWLPQNDLLGHPMTRAFITHAGSHGVYESICNGVPMVMMPLFGDQMDNAKRMETKGAGVTLNVLEMTSEDLENALKAVINDKSYKENIMRLSSLHKDRPVEPLDLAVFWVEFVMRHKGAPHLRPAAHDLTWYQYHSLDVIGFLLAVVLTVAFITFKCCAYGYRKCLGKKGRVKKAHKSKTH
production of 4-hydroxypropranolol from propranolol by CYP2D6 in co-expressing enzyme bags (SAN308), against the CYP2D6 control strain SAN300: 2.8 fold
production of 5-hydroxypropranolol from propranolol by CYP2D6 in co-expressing enzyme bags (SAN308), against the CYP2D6 control strain SAN300: 5.8 fold
